Source: patent publication US20250134988A1 (WISTAR INSTITUTE OF ANATOMY AND BIOLOGY, published 2025)
Read-outs that look alike come from different tables or passages of the source.

Assays:
CoV2_5P_HKU1FP = CoV2_5P_HKU1FP (SARS-CoV-2 spike with HKU1 fusion …, UniProt P0DTC2 14-1208); test: ELISA AUC on 5P spikes with varying fusion peptides
CoV2_5P_NonSFP [1] = biological target: T1, CoV2_5P_NonSFP (SARS-CoV-2, UniProt P0DTC2 14-1208); test: ELISA, AUC
T1 construct: also called scrambled fusion peptide spike

CoV2_5P_OC43FP [2] = biological target: T2, CoV2_5P_OC43FP (SARS-CoV-2 spike with OC43 fusion …, UniProt P0DTC2 14-1208); test: ELISA, AUC
CoV2_5P_NL63FP [3] = biological target: T3, CoV2_5P_NL63FP (SARS-CoV-2 spike with NL63 fusion …, UniProt P0DTC2 14-1208); test: ELISA, AUC
CoV2_5P_MERSFP [4] = biological target: T4, CoV2_5P_MERSFP (SARS-CoV-2 spike with MERS fusion …, UniProt P0DTC2 14-1208); test: ELISA, AUC
CoV2_5P_229EFP [5] = biological target: T5, CoV2_5P_229EFP (SARS-CoV-2 spike with 229E fusion …, UniProt P0DTC2 14-1208); test: ELISA, AUC
off-target V5 peptide = biological target: T6, off-target V5 peptide; test: ELISA on fusion peptides
T6 construct: also called V5 tag
T6 peptide: GKPIPNPLLGLDST

[6] = biological target: T7, CoV2_5P prefusion-stabilized spike protein (SARS-CoV-2, UniProt P0DTC2 14-1208); test: ELISA
T7 construct: also called 5P trimer; wildtype 5P

[7] = biological target: T7, CoV2_5P prefusion-stabilized spike …; test: ELISA, AUC
CoV2_5P_MERSFP [8] = biological target: T4, CoV2_5P_MERSFP; test: ELISA AUC on 5P spikes with varying fusion peptides
CoV2_5P_229EFP [9] = biological target: T5, CoV2_5P_229EFP; test: as above
CoV2_5P_NonSFP [10] = biological target: T1, CoV2_5P_NonSFP; test: ELISA, AUC; remark: listed apart in the source
CoV2_5P_OC43FP [11] = biological target: T2, CoV2_5P_OC43FP; test: ELISA, AUC; remark: listed apart in the source
CoV2_5P_NL63FP [12] = biological target: T3, CoV2_5P_NL63FP; test: ELISA, AUC; remark: listed apart in the source
[13] = biological target: T7, CoV2_5P prefusion-stabilized spike …; test: ELISA, AUC; remark: listed apart in the source
CoV2_5P_MERSFP [14] = biological target: T4, CoV2_5P_MERSFP; test: ELISA, AUC; remark: listed apart in the source
CoV2_5P_229EFP [15] = biological target: T5, CoV2_5P_229EFP; test: ELISA, AUC; remark: listed apart in the source

B1: C2691 (antibody, V domains shown)
VH: QVQLQQSGPELVRPGESVKISCKGSGYTFTDYAMHWVKQSHAKSLEWIGIISFYYDNTKYNQNFKGKATMTVDKSSSTAYMELARLTSEDSAIYFCASQGIHYYGSFAYWGQGTLVTVSA
VL: DIVMTQSQKFMSTSVGDRVSVSCKASQNVGTNLGWYQQKPGQSPKALIYSASYRYSGVPDRFTGSGSGTDFTLTISNVQSEDLAEYFCQQYNSSPLTFGAGTKLELK
notes: also called lineage HV1-67/KV6-15 antibody C2691
CoV2_5P_HKU1FP
  binding result: binds
CoV2_5P_NonSFP [1]
  binding result: no binding
CoV2_5P_OC43FP [2]
  binding result: binds
CoV2_5P_NL63FP [3]
  binding result: binds
CoV2_5P_MERSFP [4]
  binding result: binds
CoV2_5P_229EFP [5]
  binding result: binds
off-target V5 peptide
  binding result: no binding (tested: dilution 0.05 (no unit))
[6]
  binding result: binds

B2: C2891 (antibody, V domains shown)
VH: QVQLQQSGPALVRPGESVKISCKGSGYTFTDYAMHWVKQSRAKSLEWIGIFSFYYDNTNYTQKFKGKATMTVDKSSSTAYMELARLTSEDSAIYYCASQGIHYYGSFAYWGQGTLVTVSA
VL: DIVMTQSQKFMSTSVGDRVSVTCKASQNVATNLGWYQQKPGQSPKTLIYSASYRYSGVPDRFTGSGSGTDFTLTISNVQSEDLAEYFCHQYNGYPLTFGAGTKLELK
CoV2_5P_NonSFP [1]
  binding result: no binding
CoV2_5P_OC43FP [2]
  binding result: no binding
CoV2_5P_NL63FP [3]
  binding result: no binding
CoV2_5P_MERSFP [4]
  binding result: no binding
CoV2_5P_229EFP [5]
  binding result: no binding
[7]
  binding result: no binding

B3: C2866 (antibody, V domains shown)
VH: QVQLQQSGPELVRPGESVKISCKGSGYTFTDYAMHWVKQSHAKSLEWIGIFSFYYDNTKYNQNFKGKATMTVDKSSSTAYMELARLTSEDSAIYFCASQGIHYYGSFAYWGQGTLVTVSA
VL: DIVMTQSQKFMSTSVGDRVSVTCKASQNVGTNVGWYQQKPGQSPQALIYSASYRYSGVPDRFTGSGSGTDFTLTISNVQSEDLAEYFCQQYNSYPLTFGAGTKLELK
notes: Lineage HV1-67/KV6-15
CoV2_5P_NonSFP [1]
  binding result: no binding

B4: C2503 (antibody, V domains shown)
VH: QVQLQQSGPELVRPGESVKISCKGSGYTFTDYAMHWVKQSHSKSLEWIGIISFYYDNTKYNQNFKGKATMTVDKSSSTAYMELARLTSEDSAIYFCASQGIHYYGSFAYWGQGTLVTVSA
VL: DIVMTQSQKFMSTSVGDRVSVTCKASQNVGTNVGWYQQKPGQSHKALIYSASYRYSGVPDRFTGSGSGTDFTLTISNVQSEDLADYFCQQYNNYPLTFGAGTKLELK
notes: Lineage HV1-67/KV6-15
CoV2_5P_NonSFP [1]
  binding result: no binding

B5: C668 (antibody, V domains shown)
VH: EVKLVESGGGLVKPGGSLKLSCLVSGITFSNDAMSWVRQTPEKRLEWVASISSGGRNYYPDSVKGRFTISRDNARNILYLQMSSLRSEDTAMYFCAREGISVWAMDYWGQGTSVTVSS
VL: DIVMTQAAFSNPVTLGTSASISCRSSKSLLHSNGITYLYWYLQRPGQSPQLLIYRMSNLASGVPDRFSSSGSGTDFTLRISRVEAEDVGVYYCAQNLELPPTFGGGTKLEIK
notes: also called lineage HV5-6-5/KV2-109 antibody C668
[6]
  EC50 (read off the curve): ~0.2 µg/mL

B6: C862 (antibody, V domains shown)
VH: EVKLVESGGGLVKPGGSLKLSCAASGITFSSSAMSWVRQTPEKRLEWVASISSGGHTYYLDSMKGRFTISRDNARNILYLQMGSLRSEDTAVYYCAREGIYVWAMDYWGQGTSVTVSS
VL: DIVMTQAAFSNPVTLGTSASISCRSSKSLLQSNGITYLYWYLQKPGQSPQLLIYRMSNLASGVPDRFSGSGSGTDFTLRISRVEAEDVGIYYCAQNLELPPTFGGGTKLEIK
CoV2_5P_MERSFP [8]
  binding result: binds
CoV2_5P_229EFP [9]
  binding result: binds
CoV2_5P_HKU1FP
  binding result: binds
CoV2_5P_NonSFP [10]
  binding result: no binding
CoV2_5P_OC43FP [11]
  binding result: binds
CoV2_5P_NL63FP [12]
  binding result: binds
[13]
  binding result: binds

B7: C1766 (antibody, V domains shown)
VH: EVKLVESGGGLVKPGGSLKLSCVASGFTFSNDAMSWVRQTPEKRLEWVASISSGGRKYYPDNVKGRFTISRDNARNILYLQMSSLRSEDTAMYYCAREGIYVWAMDYWGQGTSVTVSS
VL: DIVMTQAAFSNPVTLGTSASISCRSSESLLHSNGITYLYWYLQKPGQSPQLLIYRMSNLASGVPDRFSSSGSGTDFTLRISRVEAEDVGVYYCAQNLELPPTFGGGTKLEIK
CoV2_5P_HKU1FP
  binding result: binds
CoV2_5P_NonSFP [10]
  binding result: no binding
CoV2_5P_OC43FP [11]
  binding result: binds
CoV2_5P_NL63FP [12]
  binding result: binds
CoV2_5P_MERSFP [14]
  binding result: binds
CoV2_5P_229EFP [15]
  binding result: binds
[13]
  binding result: binds
